Experiment [1] deals with T1, GPC3 peptide, amino acid position 361-390 (SEQ ID NO: 19) (human).
T1 construct: synthetic 30-residue peptide of GPC3
T1 peptide: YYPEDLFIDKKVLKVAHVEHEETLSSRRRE
As to the kind of experiment: ELISA on immobilised peptide. As to the method: (§1) In order to identify more detailed epitopes for the antibodies, the amino acid sequence of GPC3 was divided into peptides of 30 residues containing 10-residue overlaps, and the corresponding peptides were synthesized (SEQ ID NOs: 1 to 29 in Table 2). Each peptide thus synthesized was dissolved at a concentration of 1 mg/mL in dimethyl sulfoxide and then diluted to 1 μg/mL with PBS. The diluted peptide solution was added at 70 μL/well to a 96-well plate and immobilized thereon at room temperature for 1 hour. After removal of unimmobilized peptides, 20% Blocking-one (Nacalai Tesque, Inc.) was added thereto as a blocking buffer solution at 200 μL/well, and the plate was blocked overnight. After removal of the blocking buffer solution, each well was washed with TBS-T three times, and each antibody diluted to 2 μg/mL with a blocking buffer was then added thereto at 70 μL/well. One hour later, the antibody was removed, and each well was washed three times by the addition of TBS-T at 200 μL/well. An HRP-bound anti-mouse antibody was added at 70 μL/well to each well and reacted therewith for 1 hour. After removal of the antibody, each well was washed with 200 μL/well of TBS-T three times, and a chromogenic reagent ABTS Peroxidase Substrate System (1 component, KPL, Kirkegaard & Perry Laboratories, Inc.) was then added thereto at 70 μL/well and reacted at room temperature for […] to develop color. The reaction was terminated by the addition of 1% SDS at 70 μL/well, and the absorbance at 405 nm was measured using a plate reader.

Experiment [2] deals with T2, GPC3 peptide, amino acid position 21-50 (SEQ ID NO: 2) (human).
T2 construct: synthetic 30-residue peptide of GPC3
T2 peptide: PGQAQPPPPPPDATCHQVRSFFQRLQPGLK
In words: ELISA on immobilised peptide. As to the method: as §1

Experiment [3] concerns the target T3, GPC3 peptide, amino acid position 121-150 (SEQ ID NO: 7) (human).
T3 construct: synthetic 30-residue peptide of GPC3
T3 peptide: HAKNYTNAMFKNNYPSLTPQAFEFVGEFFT
In words: ELISA on immobilised peptide. As to the method:
as §1

In experiment [4] the target is T4, GPC3 peptide, amino acid position 181-210 (SEQ ID NO: 10) (human).
T4 construct: synthetic 30-residue peptide of GPC3
T4 peptide: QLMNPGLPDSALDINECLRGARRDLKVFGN
In words: ELISA on immobilised peptide. As to the method:
as §1

Experiment [5] addresses T5, GPC3 peptide, amino acid position 501-530 (SEQ ID NO: 26) (human).
T5 construct: synthetic 30-residue peptide of GPC3
T5 peptide: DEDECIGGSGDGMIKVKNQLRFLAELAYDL
As to the kind of experiment: ELISA on immobilised peptide. As to the method:
as §1

The target in experiment [6] is T6, GPC3 peptide, amino acid position 521-550 (SEQ ID NO: 27) (human).
T6 construct: synthetic 30-residue peptide of GPC3
T6 peptide: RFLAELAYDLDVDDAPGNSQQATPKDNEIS
In words: ELISA on immobilised peptide. Here is the method: as §1

The target of experiment [7] is T7, GPC3 peptide, amino acid position 401-430 (SEQ ID NO: 21) (human).
T7 construct: synthetic 30-residue peptide of GPC3
T7 peptide: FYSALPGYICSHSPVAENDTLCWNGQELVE
In words: ELISA on immobilised peptide. Here is the method:
as §1

For experiment [8], the target named is T8, GPC3 peptide, amino acid position 161-190 (SEQ ID NO: 9) (human).
T8 construct: synthetic 30-residue peptide of GPC3
T8 peptide: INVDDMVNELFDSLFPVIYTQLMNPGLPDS
As to the kind of experiment: ELISA on immobilised peptide. As to the method:
as §1

Experiment [9] deals with T9, GPC3 peptide, amino acid position 61-90 (SEQ ID NO: 4) (human).
T9 construct: synthetic 30-residue peptide of GPC3
T9 peptide: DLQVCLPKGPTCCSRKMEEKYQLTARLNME
As to the kind of experiment: ELISA on immobilised peptide. As to the method:
as §1

Experiment [10] concerns the target T10, AW5, C-terminally His-tagged recombinant product of positions 1 to 357 of GPC3 (human, UniProt P51654 25-357).
T10 construct: Expressed in CHO cells; cell pellets used in reducing Western blot; Construct is stated from position 1; also called AW5 (1-357); not shown: C-terminal His tag
As to the kind of experiment: Western blot of CHO cell pellets, reducing.

T10 sequence (P51654 25-357): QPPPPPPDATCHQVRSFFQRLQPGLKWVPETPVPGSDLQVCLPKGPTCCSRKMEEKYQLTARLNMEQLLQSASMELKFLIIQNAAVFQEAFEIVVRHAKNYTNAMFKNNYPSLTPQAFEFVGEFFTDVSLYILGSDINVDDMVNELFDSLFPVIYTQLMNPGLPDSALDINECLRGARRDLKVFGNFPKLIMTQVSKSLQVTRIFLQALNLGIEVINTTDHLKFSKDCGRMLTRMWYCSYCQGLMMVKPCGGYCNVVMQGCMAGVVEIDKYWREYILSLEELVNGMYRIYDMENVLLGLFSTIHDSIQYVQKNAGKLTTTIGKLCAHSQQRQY

B1: GT607 antibody (antibody, IgG1, V domains shown)
VH: EVQLVESGGDVVRPGGSLKLSCAASGFTFSSYGMSWVRQLPDKRLEWVASVGNGGSYRYYPENLKGRFTISRDNTKNTLYLQISGLKSEDTAIYYCARRGAFPYFDVWGAGTTVTVSS
VL: QIVLTQSPAIMSASPGEKVTLACSASSSVTYMHWYQQKSGTSPKRWIYETSKLASGVPPRFSGSGSGTSYSLTISTMEAEDAATYYCQQWSSNPLTFGAGTKLELKR
For B1, the binding result in experiment [1], in experiment [2], in experiment [3], in experiment [4], in experiment [5] and in experiment [6] was “no binding (tested: 2 µg/mL)” in each case. Also, the binding result in [7], in [8] and in experiment [9] was “no binding (tested: 2 µg/mL)” in each case.

B2: GT114 antibody (antibody, IgG1, V domains shown)
VH: DVQLQESGPGLVKPSQSLSLTCTVTGYSITSDSAWNWIRQFPGNKLEWMAYIMYSGITSYNPSLKSRISITRDTAKNQFFLQLNSVTTEDSATYYCSRGYWYFDVWGAGTTVTVSS
VL: QIVLTQSPAIMSASLGEEITLTCSASSSVSYMHWYQQKSGTSPKLLIYSTSILASGVPSRFSGSGSGTFYSLTISSVEAEDAADYYCLQWITYRTFGGGTKLEIKR
Consider B2, for which the binding result in experiment [1], in experiment [2], in experiment [3], in experiment [4], in [5] and in experiment [6] was “no binding (tested: 2 µg/mL)” each time. Further, the binding result in [7], in [8] and in experiment [9] was “no binding (tested: 2 µg/mL)” in each case.

B3: GT165 antibody (antibody, IgG1, V domains shown)
VH: QVQLQQSGAELVGPGASVKISCKAFGYTFTNHHINWVKQRPGQGLDWIGYINPYNDYTNYNQKFKGKATLTVDKSSSTAYMELSSLTSEDSAVYYCARSDPAWFAYWGQGTLVTVSA
VL: DIQMTQSPSSLSASLGGKVTITCKASQDINKNIAWYQHKPGKGPRLLIWYTYTLQPGIPSRFSGSGSGRDYSFSISNLEPEDIATYYCLQYDNLPFTFGTGTKLEIKR
On to B3, for which the binding result in [1], in experiment [2], in [3], in experiment [4], in experiment [5] and in experiment [6] was “no binding (tested: 2 µg/mL)” in each case. Besides, the binding result is “no binding (tested: 2 µg/mL)” in experiment [7], “no binding (tested: 2 µg/mL)” in [8], “no binding (tested: 2 µg/mL)” in experiment [9] and “no binding” in [10].

The values are drawn from patent US20170010270A1 (Chugai, published 2017).
